US20250154278A1 (JANUX THERAPEUTICS, published 2025)
Substitutions are numbered along the chain they refer to. Numbers in names are those of the source. Like-named read-outs stand apart in the source and are kept apart here. Blank lines part the entries; values can stand above or below the binder they belong to.

What was measured:
[1] = molecular target: T1, Human TROP2 ECD (31-274 AA), biotinylated (human, UniProt P09758 31-274, biotinylated (site not stated)); experiment: ELISA, immobilized TROP2, HRP secondary antibody
T1 construct: the entry is already residues 31-274; also called Human TROP2-biotin; hTROP2-Biotin
T1 sequence: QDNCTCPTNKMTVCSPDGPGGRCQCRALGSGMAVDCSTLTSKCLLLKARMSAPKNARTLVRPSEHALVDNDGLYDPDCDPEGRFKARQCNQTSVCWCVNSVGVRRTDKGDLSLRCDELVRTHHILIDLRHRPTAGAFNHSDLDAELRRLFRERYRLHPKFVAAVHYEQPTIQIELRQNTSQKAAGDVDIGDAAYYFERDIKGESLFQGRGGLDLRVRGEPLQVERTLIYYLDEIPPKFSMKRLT

[2] = molecular target: T2, Human TROP2 full length, on tumor cells (HCT116, MDAMB231, NCI-H292) (human, UniProt P09758 31-323); experiment: cell-based or functional assay
T2 sequence: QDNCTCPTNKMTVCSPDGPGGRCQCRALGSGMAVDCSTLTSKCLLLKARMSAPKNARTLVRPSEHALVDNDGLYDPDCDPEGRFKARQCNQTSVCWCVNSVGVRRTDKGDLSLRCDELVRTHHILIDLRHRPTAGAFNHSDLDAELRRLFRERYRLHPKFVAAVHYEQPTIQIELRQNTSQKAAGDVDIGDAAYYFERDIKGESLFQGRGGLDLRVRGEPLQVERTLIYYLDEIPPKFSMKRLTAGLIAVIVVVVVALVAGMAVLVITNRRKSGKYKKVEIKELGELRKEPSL

[3] = molecular target: T2, Human TROP2 full length, on tumor cells …; experiment: cell-based or functional assay; remark: listed apart in the source
[4] = molecular target: T2, Human TROP2 full length, on tumor cells …; experiment: cell-based or functional assay; remark: listed apart in the source
[5] = molecular target: T2, Human TROP2 full length, on tumor cells …; experiment: cell-based or functional assay; remark: listed apart in the source
[6] = molecular target: T1, Human TROP2 ECD (31-274 AA), …; experiment: TROP2 binding ELISA, biotinylated TROP2 on neutravidin plates
[7] = molecular target: T3, Cynomolgus monkey TROP2 full length, on recombinant HEK293 cells (cynomolgus monkey, UniProt P09758 31-323 (human entry)); experiment: cell-based or functional assay
T3 chain: T2 sequence with M32V, S63N, I200V, M262V, T268S

Cyno CD3 = molecular target: T4, Cyno CD3 (Antigen was biotinylated for capture on neutravidin plates; the site of biotin and any tag are not stated.); experiment: Cyno CD3 binding ELISA
T4 construct: also called cynomolgus monkey CD3
T4 chain: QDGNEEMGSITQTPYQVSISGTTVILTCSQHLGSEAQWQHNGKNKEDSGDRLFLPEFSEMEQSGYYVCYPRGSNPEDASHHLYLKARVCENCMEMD

[8] = molecular target: T2, Human TROP2 full length, on tumor cells …; experiment: cell-based or functional assay; remark: listed apart in the source
[9] = molecular target: T2, Human TROP2 full length, on tumor cells …; experiment: cell-based or functional assay; remark: listed apart in the source
[10] = molecular target: T1, Human TROP2 ECD (31-274 AA), …; experiment: TROP2 binding ELISA; the table's head prints only 'EC50', the unit is that of the axis Log [TCE nM]
[11] = molecular target: T5, human CD3 epsilon, biotinylated (human, UniProt P07766 23-126, limits assumed, biotinylated (site not stated)); experiment: Human CD3 binding ELISA
T5 construct: Printed in places as CD36, CD38, CD3c or CD3&; also called CD3e-bio; human CD3e-biotin

[12] = molecular target: T5, human CD3 epsilon, biotinylated; experiment: BLI, CD3e-biotin on sensor, 50 nM TCE
[13] = molecular target: T5, human CD3 epsilon, biotinylated; experiment: BLI, CD3e-biotin on sensor (summary)
[14] = molecular target: T5, human CD3 epsilon, biotinylated; experiment: CD3 binding ELISA
[15] = molecular target: T5, human CD3 epsilon, biotinylated; experiment: ELISA, CD3e-biotin captured
[16] = molecular target: T1, Human TROP2 ECD (31-274 AA), …; experiment: BLI, human TROP2-biotin (10 nM) on sensor, 50 nM TCE

T5 sequence (P07766 23-126 limits assumed): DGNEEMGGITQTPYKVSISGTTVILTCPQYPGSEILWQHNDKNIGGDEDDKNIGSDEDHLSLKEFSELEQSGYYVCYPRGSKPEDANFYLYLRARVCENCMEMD

EC50 [10]: 893 pM
B6: TCE-45 (anti-CD3 scFv F104A, anti-TROP2 HC D109A) (bispecific antibody)
light: DIQLTQSPSSLSASVGDRVSITCKASQDVSIAVAWYQQKPGKAPKLLIYSASYRYTGVPDRFSGSGSGTDFTLTISSLQPEDFAVYYCQQHYITPLTFGAGTKVEIKRTVAAPSVFIFPPSDEQLKSGTASVVCLLNNFYPREAKVQWKVDNALQSGNSQESVTEQDSKDSTYSLSSTLTLSKADYEKHKVYACEVTHQGLSSPVTKSFNRGEC
heavy: not shown

EC50 (Cyno CD3): 482 pM | EC50 [11]: 531 pM
B7: TCE-40 (anti-CD3 scFv F240A, anti-TROP2 HC F108A) (bispecific antibody)
light: B6 light
heavy: not shown
CynoTROP2 + HEK293 cells Cytotox EC50 [7]: 5 pM | HCT116 Cytotox EC50 [9]: > 3000 pM

EC50 [6]: 1070 pM
B9: TCE-43 (anti-CD3 scFv wt, anti-TROP2 HC D109A) (bispecific antibody)
light: B6 light
heavy: not shown
CynoTROP2 + HEK293 cells Cytotox EC50 [7]: 0.1 pM | H292 Cytotox EC50 [8]: 1 pM

EC50 [14]: 1100 pM
B11: TCE-46 (bispecific antibody)
light chain (anti-TROP2 LC wt): B6 light
heavy chain (anti-CD3 scFv F240A + linker + anti-TROP2 D109A HC): not shown
notes: also called anti-CD3 scFv (F240A) + linker + anti-TROP2 (D109A) HC; anti-TROP2 LC wt

EC50 [14]: 594 pM | EC50 [10]: 1380 pM
B14: TCE-44 (bispecific antibody)
light chain (anti-TROP2 LC wt): B6 light
heavy chain (anti-CD3 scFv H101A + linker + anti-TROP2 D109A HC): not shown
notes: also called anti-CD3 scFv (H101A) + linker + anti-TROP2 (D109A) HC; anti-TROP2 LC wt

Kd [16]: 1220 pM
B15: TCE-41 (anti-CD3 scFv with P41S, A49G, N87S and further mutations as in TCE-35; anti-TROP2 HC F108A) (bispecific antibody)
light: B6 light
heavy: EVQLVESGGGLVQPGGSLKLSCAASGFTFNKYAMNWVRQASGKGLEWVGRIRSKYNNYATYYADSVKDRFTISRDDSKNTAYLQMNSLKTEDTAVYYCVRHGNFGNSYISYWAYWGQGTLVTVSSGGGGSGGGGSGGGGSQTVVTQEPSFSVSPGGTVTLTCRSSTGAVTSGNYANWVQQTPGQAPRGLIGGTKFLAPGVPDRFSGSILGNKAALTITGAQADDESDYYCVLWYSNRWVFGGGTKLTVLGGGGSQVQLQQSGSELKKPGASVKVSCKASGYTFTNYGMNWVKQAPGQGLKWMGWINTYTGEPTYTDDFKGRFAFSLDTSVSTAYLQISSLKADDTAVYFCARGGFGSSYWYADVWGQGSLVTVSSASTKGPSVFPLAPSSKSTSGGTAALGCLVKDYFPEPVTVSWNSGALTSGVHTFPAVLQSSGLYSLSSVVTVPSSSLGTQTYICNVNHKPSNTKVDKKVEPKSC
H292 Cytotox EC50 [8]: 3 pM | HCT116 Cytotox EC50 [9]: 73 pM

EC50 (Cyno CD3): 671 pM | EC50 [11]: 761 pM | EC50 [6]: 1020 pM
B17: TCE-39 (anti-CD3 scFv F104A, anti-TROP2 HC F108A) (bispecific antibody)
light: B6 light
heavy: not shown

EC50 (Cyno CD3): 354 pM
B18: TCE-42 (anti-CD3 scFv with N30Q, I109V, G172A, V231A; anti-TROP2 HC F108A) (bispecific antibody)
light: B6 light
heavy: not shown

More lines, now with the values behind:

B1: TCE-4 (TROP2 Fab HC F108A TCE, scFv on the Fab LC) (bispecific antibody)
light: not shown
heavy: QVQLQQSGSELKKPGASVKVSCKASGYTFTNYGMNWVKQAPGQGLKWMGWINTYTGEPTYTDDFKGRFAFSLDTSVSTAYLQISSLKADDTAVYFCARGGFGSSYWYADVWGQGSLVTVSSASTKGPSVFPLAPSSKSTSGGTAALGCLVKDYFPEPVTVSWNSGALTSGVHTFPAVLQSSGLYSLSSVVTVPSSSLGTQTYICNVNHKPSNTKVDKKVEPKSC
notes: Description names HisTag AviTag on the HC
EC50 [1]: 7300 pM | TCE Cytotoxicity EC50, H292 + CD8+ T cells [2]: 0.4 pM | TCE Cytotoxicity EC50, HCT116 + CD8+ T cells [2]: 18.3 pM | TCE Cytotoxicity EC50, MDAMB231 + CD8+ T cells [2]: 6.3 pM

B2: TCE-9 (anti-CD3 scFv wt + linker + anti-TROP2 HC wt; anti-TROP2 LC wt) (bispecific antibody)
light: B6 light
heavy: not shown
H292 Cytotox EC50 [3]: 0.7 pM | H292 Cytotox EC50 [4]: 0.7 pM | H292 Cytotox EC50 [5]: 0.7 pM

B3: TCE-35 (anti-CD3 scFv with P41S, A49G, N87S, L150F, T151S, G163R, P175A, K181T, T200V, A202D, L208I, G211N, L217I, S218T, V220A, P222A, E223D, A226S, E227D; … (bispecific antibody)
light: B6 light
heavy: B15 heavy with A362F
H292 Cytotox EC50 [4]: 0.5 pM

B4: TCE-38 (anti-CD3 scFv H101A, anti-TROP2 HC F108A) (bispecific antibody)
light: B6 light
heavy: not shown
EC50 [6]: 1280 pM

B5: TCE-37 (anti-CD3 scFv wt, anti-TROP2 HC F108A) (bispecific antibody)
light: B6 light
heavy: not shown
CynoTROP2 + HEK293 cells Cytotox EC50 [7]: 0.2 pM | EC50 (Cyno CD3): 184 pM | H292 Cytotox EC50 [8]: 5 pM | EC50 [6]: 1150 pM | HCT116 Cytotox EC50 [9]: 109 pM

B8: TCE-36 (anti-CD3 scFv with N30Q, I109V, G172A, V231A; anti-TROP2 wt) (bispecific antibody)
light: B6 light
heavy: not shown
H292 Cytotox EC50 [4]: 2.1 pM | Kd [12]: 9110 pM | Response [12]: 0.931

B10: TCE-32 (anti-CD3 scFv W238A, anti-TROP2 wt) (bispecific antibody)
light: B6 light
heavy: not shown
CD3 Octet response [13]: 0.07 | Kd [13]: 31000 pM | H292 Cytotox EC50 [5]: > 1000 pM | Kd [12]: 31000 pM | Response [12]: 0.0683

B12: TCE-7 (TROP2 Fab HC F108A TCE, scFv on the Fab HC) (bispecific antibody)
light: B6 light
heavy: not shown
notes: Description names a HisTag on the HC
EC50 [1]: 1400 pM | TCE Cytotoxicity EC50, H292 + CD8+ T cells [2]: 5.6 pM | TCE Cytotoxicity EC50, HCT116 + CD8+ T cells [2]: 206 pM | TCE Cytotoxicity EC50, MDAMB231 + CD8+ T cells [2]: 47.8 pM

B13: TCE-34 (anti-CD3 scFv F240A, anti-TROP2 wt) (bispecific antibody)
light: B6 light
heavy: not shown
CD3 t1/2 [13]: 0.65 min | EC50 [15]: 600 pM | H292 Cytotox EC50 [5]: 20 pM

B16: TCE-27 (anti-CD3 scFv W233A, anti-TROP2 wt) (bispecific antibody)
light: B6 light
heavy: not shown
CD3 t1/2 [13]: 6.45 min | Kd [13]: 12300 pM | H292 Cytotox EC50 [5]: > 1000 pM | Kd [12]: 12300 pM | Response [12]: 0.414
